# Entries after “also recorded” stand apart in the source; their conditions may differ.
# Columns and labels:
# sortilin [1] = target: T1, sortilin (Homo sapiens, UniProt Q99523); assay: GSTpro binding to wt sortilin-transfected HEK293 cells, staining without detergent permeabilization; assay type: cell-based; conditions: versus staining with detergent, Fig. 6a vs 6b
# T1 construct: They were transfected with plasmids either encoding wild type sortilin, or sortilin with a mutation that renders it endocytosis deficient; expressed in transfected cells; host or cells: HEK 293 cells, transient transfection (lipofectamine)
# T1 sequence (Q99523 78-831): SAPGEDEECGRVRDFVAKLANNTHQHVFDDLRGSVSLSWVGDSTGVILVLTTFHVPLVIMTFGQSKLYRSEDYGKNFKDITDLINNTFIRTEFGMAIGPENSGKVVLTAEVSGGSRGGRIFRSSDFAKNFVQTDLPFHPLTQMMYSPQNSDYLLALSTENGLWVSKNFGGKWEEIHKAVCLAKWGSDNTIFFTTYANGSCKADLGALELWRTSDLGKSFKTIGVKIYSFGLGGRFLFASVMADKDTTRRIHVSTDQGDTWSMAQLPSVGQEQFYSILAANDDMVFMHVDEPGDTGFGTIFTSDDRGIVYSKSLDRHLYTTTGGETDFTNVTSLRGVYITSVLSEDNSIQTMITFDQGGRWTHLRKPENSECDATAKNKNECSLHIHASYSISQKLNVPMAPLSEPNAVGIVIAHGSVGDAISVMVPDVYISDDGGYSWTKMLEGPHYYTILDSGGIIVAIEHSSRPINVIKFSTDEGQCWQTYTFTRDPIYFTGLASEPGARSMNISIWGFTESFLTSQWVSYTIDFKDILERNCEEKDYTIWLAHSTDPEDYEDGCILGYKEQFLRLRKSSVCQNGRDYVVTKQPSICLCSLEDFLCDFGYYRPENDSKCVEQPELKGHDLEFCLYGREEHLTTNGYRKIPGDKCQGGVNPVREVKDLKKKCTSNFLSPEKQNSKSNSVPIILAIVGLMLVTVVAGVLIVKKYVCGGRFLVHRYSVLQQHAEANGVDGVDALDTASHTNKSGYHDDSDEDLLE
# Description: (§1) HEK 293 cells were grown in DMEM with 10% fetal bovine serum. They were transfected with plasmids either encoding wild type sortilin, or sortilin with a mutation that renders it endocytosis deficient, or an empty control vector according to manufacturer’s instructions using 20 µg lipofectamine (Thermo Fischer Scientific) with 8 µg DNA on […] per 6 cm, poly-lysine coated dish. The cells were initially plated into 24-well dishes after transfection. That intermediate step rendered more uniform cell numbers in the 96-well dishes that were used to run the actual assay. 24 h later, cells were split into black opaque-walled, clear-bottom 96 well dishes at 42000 cells in 80 µl medium/well. […]
# (§2) The fixed cells were washed with PBS for 15 min, followed by two 15 min washes with PBS with 0.1% Triton X-100. […] Wells to be evaluated for blocking of the sortilin-GSTpro interaction by antibodies were only stained with an antibody against the pro domain of proNGF in 10% FBS at a dilution of 1:1500 (Millipore (N-term) clone EPI318Y, Rabbit Monoclonal Antibody Catalog Number: #04-1142). […]
# (§3) The following day, wells were washed 3 × 15 min with PBS/0.1% Triton X-100. […] Cellular fluorescence was quantified using an array scanner and the “Neuronal Profiler” Bioapplication (Thermo Fisher Scientific) as described below.
# sortilin [2] = conditions: immobilized sortilin; ref Nykjaer et al. [2004]; read-out: affinity (immobilized sortilin); cited from earlier work
# Excerpt: The assay was also used to screen for blocking of sortilin-GSTpro interaction with compound AF38469, which ...
# sortilin [3] = target: T1, sortilin; assay: Cell-based assay of GSTpro (NGF prodomain) binding/uptake, wt sortilin-transfected HEK293 cells, sortilin/GST double stain, high content imaging, with detergent; conditions: for signal and assay window, GSTpro compared to proNGF (in words): Fig. 3u, sortilin-transfected cells
# Description: HEK 293 cells were grown in DMEM with 10% fetal bovine serum. They were transfected with plasmids either encoding wild type sortilin, or sortilin with a mutation that renders it endocytosis deficient, or an empty control vector according to manufacturer’s instructions using 20 µg lipofectamine (Thermo Fischer Scientific) with 8 µg DNA on […] per 6 cm, poly-lysine coated dish. The cells were initially plated into 24-well dishes after transfection. That intermediate step rendered more uniform cell numbers in the 96-well dishes that were used to run the actual assay. 24 h later, cells were split into black opaque-walled, clear-bottom 96 well dishes at 42000 cells in 80 µl medium/well. […] 1 h after that treatment, the medium was replaced with 80 µl medium containing the same antibody, compounds or peptides included in the preincubation medium, plus recombinant GSTpro or proNGF (either purified in-house from recombinant HEK cells or derived from an E.coli expression system at either 0 nM (negative control), or 50 nM, or, in a few instances at 5 or 10 nM. The respective concentrations are indicated in the figures 45 min after adding GSTpro or proNGF, cells were washed twice with prewarmed PBS and fixed in 4% PFA for 20 min at approximately 20 °C.
# as §2, §3
# Sortilin-GSTpro interaction was also assessed using HEK cell derived cell lines stably expressing sortilin. […]
# Images from 96 well dishes were automatically recorded with a Cellomics ArrayScan VTI HCS Reader (Thermo Scientific) using a 10× microscope objective and the build-in standard autofocus method. Fifteen 1024 × 1024 images in 4 channels (Channel 1 and 2: Filter XF5–Hoechst, to detect nuclei and all cells; Channel 3: XF53-Texas Red to detect, e.g., sortilin-positive cells; Channel 4: Filter XF93 – FITC, to detect cells positive, e.g., for the proNGF pro domain) were recorded per 96 well.
# The images were analyzed with the Cellomics assay algorithm NeuronalProfiling.V3.5.
# [4] = tested on: internalization-mutant sortilin; assay: GSTpro binding to HEK293 cells expressing internalization-mutant sortilin; assay type: cell-based, human; conditions: compared with wild type sortilin
# Description: as §1, §2, §3
molecule,measurement,setting,value
"GSTpro: fusion of Glutathione S-transferase (GST) merged at the C-terminal of GST to the pro part (19–121) of human proNGF (protein, left off: GST, N-terminal, kept, fusion of Glutathione S-transferase (GST) merged at the C-terminal of GST to the pro part (19–121) of human proNGF) EPHSESNVPAGHTIPQAHWTKLQHSLDTALRRARSAPAAAIAARVAGQTRNITVDPRLFKKRRLRSPRVLFSTQPPREAADTQDLDFEVGGAAPFNRTHRSKR",reduction of GSTpro signal without permeabilization,sortilin [1]; cells expressing sortilin below the set threshold,less than half reduced
same,reduction of GSTpro signal without permeabilization,sortilin [1]; sortilin-positive cells,almost fourfold reduced; also recorded: much lower GSTpro signal
same,Kd,sortilin [2],8 nM
same,"signal and assay window, GSTpro compared to proNGF (in words)",sortilin [3],substantially larger compared to proNGF
same,"signal and assay window, GSTpro compared to proNGF (in words)",sortilin [3]; listed as GST-pro,larger signal and assay window
same,"GSTpro signal, sortilin-positive versus sortilin-negative (or control-transfected) cells (in words)","sortilin [3]; Figs. 3, 4b, 6, 7, 8",highly enhanced GSTpro uptake or binding; also recorded: several fold higher GSTpro signal in sortilin-positive cells
same,GSTpro signal in internalization-mutant versus wt sortilin cells (in words),[4],stronger GSTpro signal than wild type sortilin; also recorded: slightly higher signal
